One may read the EC50 as the concentration giving half of the maximal effect. Low values mean a more potent agent, high ones a less potent agent.

B1: 25B05_H4-L2 (antibody, V domains shown)
VH: EVQLVQSGAEVKKPGASVKVSCKASGYTFTDYFMNWVRQAPGQRLEWMGVINPHNGGTSYSQKFQGRVTLTVDKSSSTAYMELSSLRSEDTAVYYCARRPLGSDYWGQGTTVTVSS
VL: DIVMTQSPSSVSASVGDRVTITCKASQNVGTAVAWYQQKPGKAPKLLIYSASSRYTGVPSRFSGSGSGTDFTLTISSLQPEDFATYYCQQYSSYPLTFGQGTKLEIK
B2: 25B05_H3-L2 (antibody, V domains shown)
VH: EVQLVQSGAEVKKPGASVKVSCKASGYTFTDYFMNWVRQAPGQRLEWMGVINPHNGGTSYSQKFQGRVTITVDKSSSTAYMELSSLRSEDTAVYYCARRPLGSDYWGQGTTVTVSS
VL: DIVMTQSPSSVSASVGDRVTITCKASQNVGTAVAWYQQKPGKAPKLLIYSASSRYTGVPSRFSGSGSGTDFTLTISSLQPEDFATYYCQQYSSYPLTFGQGTKLEIK
B3: 25B05_H4-L3 (antibody, V domains shown)
VH: EVQLVQSGAEVKKPGASVKVSCKASGYTFTDYFMNWVRQAPGQRLEWMGVINPHNGGTSYSQKFQGRVTLTVDKSSSTAYMELSSLRSEDTAVYYCARRPLGSDYWGQGTTVTVSS
VL: DIQMTQSPSSVSASVGDRVTITCKASQNVGTAVAWYQQKPGKAPKLLIYSASSRYTEVPDRFSGSGSGTDFTLTISSLQPEDFATYYCQQYSSYPLTFGQGTKLEIK
B4: 25B05_H2-L2 (antibody, V domains shown)
VH: QVQLVQSGAEVKKPGASVKVSCKASGYTFTDYFMNWVRQAPGQRLEWMGVINPHNGGTSYSQKFQGRVTITVDKSSSTAYMELSSLRSEDTAVYYCARRPLGSDYWGQGTTVTVSS
VL: DIVMTQSPSSVSASVGDRVTITCKASQNVGTAVAWYQQKPGKAPKLLIYSASSRYTGVPSRFSGSGSGTDFTLTISSLQPEDFATYYCQQYSSYPLTFGQGTKLEIK
B5: 25B05_H3-L4 (antibody, V domains shown)
VH: EVQLVQSGAEVKKPGASVKVSCKASGYTFTDYFMNWVRQAPGQRLEWMGVINPHNGGTSYSQKFQGRVTITVDKSSSTAYMELSSLRSEDTAVYYCARRPLGSDYWGQGTTVTVSS
VL: DIVMTQSPSSVSASVGDRVTITCKASQNVGTAVAWYQQKPGKAPKLLIYSASSRYTEVPDRFSGSGSGTDFTLTISSLQPEDFATYYCQQYSSYPLTFGQGTKLEIK
B6: 25B05_H2-L3 (antibody, V domains shown)
VH: QVQLVQSGAEVKKPGASVKVSCKASGYTFTDYFMNWVRQAPGQRLEWMGVINPHNGGTSYSQKFQGRVTITVDKSSSTAYMELSSLRSEDTAVYYCARRPLGSDYWGQGTTVTVSS
VL: DIQMTQSPSSVSASVGDRVTITCKASQNVGTAVAWYQQKPGKAPKLLIYSASSRYTEVPDRFSGSGSGTDFTLTISSLQPEDFATYYCQQYSSYPLTFGQGTKLEIK
B7: 33D03_H3-L3 (antibody, V domains shown)
VH: QVQLVQSGAEVKKPGASVKVSCKASGYTFTDYYLNWVRQAPGQRLEWMGIINPYNGGTNYSQKFQGRVTITVDKSSSTAYMELSSLRSEDTAVYYCASEGLRTWFTYWGQGTLVTVSS
VL: DIVMTQSPDSLAVSLGERATINCKSSQSLSNSGNQKIYLAWYQQKPGQPPKLLIYGASSRESGVPDRFSGSGSEIDFTLTISSLQAEDVAVYYCQNDHSHPFTFGQGTKLEIK
B8: 33D03_H4-L2 (antibody, V domains shown)
VH: QVQLVQSGAEVKKPGASVKVSCKASGYTFTDYYLNWVRQAPGQRLEWMGIINPYNGGTNYNQRFKGRVTITVDKSSSTAYMELSSLRSEDTAVYYCASEGLRTWFTYWGQGTLVTVSS
VL: DIVMTQSPDSLAVSLGERATISCKSSQSLSNSGNQKIYLAWYQQKPGQPPKLLIYGASSRESGVPDRFSGSGSGTDFTLTISSLQAEDVAVYYCQNDHSHPFTFGQGTKLEIK
B9: 33D03_H1-L3 (antibody, V domains shown)
VH: QVQLVQSGAEVKKPGASVKVSCKASGYTFTDYYLNWVRQAPGQRLEWMGIINPYNGGTNYSQKFQGRVTITRDTSASTAYMELSSLRSEDTAVYYCASEGLRTWFTYWGQGTLVTVSS
VL: DIVMTQSPDSLAVSLGERATINCKSSQSLSNSGNQKIYLAWYQQKPGQPPKLLIYGASSRESGVPDRFSGSGSEIDFTLTISSLQAEDVAVYYCQNDHSHPFTFGQGTKLEIK
B10: 33D03_H2-L2 (antibody, V domains shown)
VH: QVQLVQSGAEVKKPGASVKVSCKASGYTFTDYYLNWVRQAPGQRLEWMGIINPYNGGTNYNQRFKGRVTITRDTSASTAYMELSSLRSEDTAVYYCASEGLRTWFTYWGQGTLVTVSS
VL: DIVMTQSPDSLAVSLGERATISCKSSQSLSNSGNQKIYLAWYQQKPGQPPKLLIYGASSRESGVPDRFSGSGSGTDFTLTISSLQAEDVAVYYCQNDHSHPFTFGQGTKLEIK
B11: 33D03_H4-L3 (antibody, V domains shown)
VH: QVQLVQSGAEVKKPGASVKVSCKASGYTFTDYYLNWVRQAPGQRLEWMGIINPYNGGTNYNQRFKGRVTITVDKSSSTAYMELSSLRSEDTAVYYCASEGLRTWFTYWGQGTLVTVSS
VL: DIVMTQSPDSLAVSLGERATINCKSSQSLSNSGNQKIYLAWYQQKPGQPPKLLIYGASSRESGVPDRFSGSGSEIDFTLTISSLQAEDVAVYYCQNDHSHPFTFGQGTKLEIK
B12: 33D03_H2-L4 (antibody, V domains shown)
VH: QVQLVQSGAEVKKPGASVKVSCKASGYTFTDYYLNWVRQAPGQRLEWMGIINPYNGGTNYNQRFKGRVTITRDTSASTAYMELSSLRSEDTAVYYCASEGLRTWFTYWGQGTLVTVSS
VL: DIVMTQSPDSLAVSLGERATISCKSSQSLSNSGNQKIYLAWYQQKPGQPPKLLIYGASSRESGVPDRFSGSGSEIDFTLTISSLQAEDVAVYYCQNDHSHPFTFGQGTKLEIK
B13: 33D03_H2-L3 (antibody, V domains shown)
VH: QVQLVQSGAEVKKPGASVKVSCKASGYTFTDYYLNWVRQAPGQRLEWMGIINPYNGGTNYNQRFKGRVTITRDTSASTAYMELSSLRSEDTAVYYCASEGLRTWFTYWGQGTLVTVSS
VL: DIVMTQSPDSLAVSLGERATINCKSSQSLSNSGNQKIYLAWYQQKPGQPPKLLIYGASSRESGVPDRFSGSGSEIDFTLTISSLQAEDVAVYYCQNDHSHPFTFGQGTKLEIK
B14: 33D03_H2-L1 (antibody, V domains shown)
VH: QVQLVQSGAEVKKPGASVKVSCKASGYTFTDYYLNWVRQAPGQRLEWMGIINPYNGGTNYNQRFKGRVTITRDTSASTAYMELSSLRSEDTAVYYCASEGLRTWFTYWGQGTLVTVSS
VL: DIVMTQSPDSLAVSLGERATINCKSSQSLSNSGNQKIYLAWYQQKPGQPPKLLIYGASSRESGVPDRFSGSGSGTDFTLTISSLQAEDVAVYYCQNDHSHPFTFGQGTKLEIK
B15: 33D03_H4-L4 (antibody, V domains shown)
VH: QVQLVQSGAEVKKPGASVKVSCKASGYTFTDYYLNWVRQAPGQRLEWMGIINPYNGGTNYNQRFKGRVTITVDKSSSTAYMELSSLRSEDTAVYYCASEGLRTWFTYWGQGTLVTVSS
VL: DIVMTQSPDSLAVSLGERATISCKSSQSLSNSGNQKIYLAWYQQKPGQPPKLLIYGASSRESGVPDRFSGSGSEIDFTLTISSLQAEDVAVYYCQNDHSHPFTFGQGTKLEIK

The target in the experiment is human VWF (human). The experiment is described as follows: ELISA. (In general: ELISA stands for enzyme-linked immunosorbent assay.)
human VWF (human), sequence (P04275 whole entry): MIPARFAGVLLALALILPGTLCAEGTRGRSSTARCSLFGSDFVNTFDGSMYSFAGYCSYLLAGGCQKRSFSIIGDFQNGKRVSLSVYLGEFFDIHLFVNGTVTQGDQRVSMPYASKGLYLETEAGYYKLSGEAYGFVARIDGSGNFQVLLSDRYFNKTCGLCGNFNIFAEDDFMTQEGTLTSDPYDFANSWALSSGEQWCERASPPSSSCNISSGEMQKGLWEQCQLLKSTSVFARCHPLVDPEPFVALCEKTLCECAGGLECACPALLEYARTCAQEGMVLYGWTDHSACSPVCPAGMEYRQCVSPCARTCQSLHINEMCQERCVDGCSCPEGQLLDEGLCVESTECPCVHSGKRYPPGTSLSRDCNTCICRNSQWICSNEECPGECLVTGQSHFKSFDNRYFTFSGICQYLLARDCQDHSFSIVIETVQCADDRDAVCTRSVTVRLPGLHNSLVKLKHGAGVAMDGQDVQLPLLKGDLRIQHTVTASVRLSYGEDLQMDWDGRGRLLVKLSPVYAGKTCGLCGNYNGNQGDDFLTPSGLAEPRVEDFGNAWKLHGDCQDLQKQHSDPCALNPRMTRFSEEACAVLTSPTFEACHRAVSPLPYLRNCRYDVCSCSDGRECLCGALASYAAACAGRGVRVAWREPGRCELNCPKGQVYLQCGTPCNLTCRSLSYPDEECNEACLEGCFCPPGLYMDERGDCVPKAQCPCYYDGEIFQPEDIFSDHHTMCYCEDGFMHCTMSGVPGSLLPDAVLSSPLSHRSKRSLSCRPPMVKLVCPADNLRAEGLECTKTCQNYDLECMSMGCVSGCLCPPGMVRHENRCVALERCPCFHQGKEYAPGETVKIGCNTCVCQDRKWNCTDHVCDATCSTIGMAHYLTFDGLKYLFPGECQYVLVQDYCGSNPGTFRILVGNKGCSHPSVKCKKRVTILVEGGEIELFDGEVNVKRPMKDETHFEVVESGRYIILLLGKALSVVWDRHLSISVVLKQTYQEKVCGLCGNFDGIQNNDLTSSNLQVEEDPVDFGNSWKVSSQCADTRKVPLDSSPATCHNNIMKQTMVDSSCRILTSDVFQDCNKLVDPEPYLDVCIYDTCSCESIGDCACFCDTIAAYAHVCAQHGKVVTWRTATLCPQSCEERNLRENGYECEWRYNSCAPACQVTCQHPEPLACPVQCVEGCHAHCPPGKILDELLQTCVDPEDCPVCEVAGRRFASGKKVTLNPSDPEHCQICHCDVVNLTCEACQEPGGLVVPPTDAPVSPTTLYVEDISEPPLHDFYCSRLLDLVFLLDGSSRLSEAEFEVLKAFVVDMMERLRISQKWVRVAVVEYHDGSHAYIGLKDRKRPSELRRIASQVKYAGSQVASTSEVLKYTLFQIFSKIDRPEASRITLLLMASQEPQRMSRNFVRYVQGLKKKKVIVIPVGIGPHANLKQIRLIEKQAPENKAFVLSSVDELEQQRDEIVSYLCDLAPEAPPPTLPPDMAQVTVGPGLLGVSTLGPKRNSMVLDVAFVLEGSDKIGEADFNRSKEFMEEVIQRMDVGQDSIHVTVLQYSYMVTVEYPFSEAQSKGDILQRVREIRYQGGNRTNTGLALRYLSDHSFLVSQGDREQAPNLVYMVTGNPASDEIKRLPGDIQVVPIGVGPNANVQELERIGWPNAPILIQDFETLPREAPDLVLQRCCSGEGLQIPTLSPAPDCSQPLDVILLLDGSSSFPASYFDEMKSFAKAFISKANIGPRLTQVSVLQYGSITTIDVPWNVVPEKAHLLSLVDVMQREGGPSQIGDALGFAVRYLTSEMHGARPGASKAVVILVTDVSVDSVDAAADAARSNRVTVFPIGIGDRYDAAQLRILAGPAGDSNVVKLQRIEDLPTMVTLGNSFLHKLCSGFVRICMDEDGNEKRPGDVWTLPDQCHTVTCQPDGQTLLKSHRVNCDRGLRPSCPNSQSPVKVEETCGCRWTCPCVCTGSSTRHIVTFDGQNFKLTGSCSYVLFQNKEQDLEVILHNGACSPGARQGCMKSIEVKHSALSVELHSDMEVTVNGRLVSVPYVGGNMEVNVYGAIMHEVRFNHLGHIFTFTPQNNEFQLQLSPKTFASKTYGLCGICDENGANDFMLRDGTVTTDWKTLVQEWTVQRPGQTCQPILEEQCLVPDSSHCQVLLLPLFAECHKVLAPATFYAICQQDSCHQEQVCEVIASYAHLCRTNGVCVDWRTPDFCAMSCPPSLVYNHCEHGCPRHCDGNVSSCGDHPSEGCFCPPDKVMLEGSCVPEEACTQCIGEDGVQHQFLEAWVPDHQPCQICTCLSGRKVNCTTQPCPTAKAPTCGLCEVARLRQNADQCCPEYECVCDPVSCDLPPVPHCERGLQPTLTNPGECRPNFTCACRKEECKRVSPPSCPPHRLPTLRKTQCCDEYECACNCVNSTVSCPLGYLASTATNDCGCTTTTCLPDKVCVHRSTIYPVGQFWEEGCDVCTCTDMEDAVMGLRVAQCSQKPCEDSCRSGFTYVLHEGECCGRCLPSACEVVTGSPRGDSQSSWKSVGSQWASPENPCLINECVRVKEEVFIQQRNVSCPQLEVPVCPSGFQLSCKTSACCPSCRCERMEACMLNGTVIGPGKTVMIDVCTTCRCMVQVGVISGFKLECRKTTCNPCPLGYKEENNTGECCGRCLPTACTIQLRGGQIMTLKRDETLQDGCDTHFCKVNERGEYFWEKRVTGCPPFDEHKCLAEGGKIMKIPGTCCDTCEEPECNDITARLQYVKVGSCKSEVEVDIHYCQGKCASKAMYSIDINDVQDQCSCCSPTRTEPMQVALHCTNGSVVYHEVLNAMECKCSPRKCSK
The molecule B1 registered an EC50 of 0.0357 µg/mL.

B2 registered an EC50 of 0.0516 µg/mL. The EC50 values of the last two molecules are within 1.5-fold of each other.

Regarding B3, the 50% effective concentration (EC50) is 0.0271 µg/mL. Against the preceding molecule, the EC50 is about 1.9-fold lower.

B4 yielded a 50% effective concentration (EC50) of 0.0564 µg/mL.

In turn, B5 showed a 50% effective concentration (EC50) of 0.0379 µg/mL.

B6: the EC50 worked out at 0.0416 µg/mL. This EC50 and that of the molecule before are within 1.5-fold of each other.

In the case of B7, a half-maximal response (EC50) required 0.0483 µg/mL.

Molecule B8 showed an EC50 of 0.0354 µg/mL. The EC50 values of the last two molecules are within 1.5-fold of each other.

Take B9: a half-maximal effect (EC50) was put at 0.0597 µg/mL.

Regarding B10, the EC50 is 0.0394 µg/mL.

Molecule B11 had an EC50 of 0.0371 µg/mL.

In turn, B12 gave a half-maximal effective concentration (EC50) of 0.0381 µg/mL.

On to B13, for which the EC50 is 0.0371 µg/mL.

B14 displayed a 50% effective concentration (EC50) of 0.0373 µg/mL.

B15 showed a half-maximal effective concentration (EC50) of 0.0365 µg/mL.

Source of the values: patent US20260317443 (published 2026).
